According to patent US20150344570A1 (published 2015):

T1: FcγRIIa H (human, UniProt P12318 34-217)
T1 construct: extracellular domain; also called FcγRIIa type H; 2aH
T1 sequence (looked up): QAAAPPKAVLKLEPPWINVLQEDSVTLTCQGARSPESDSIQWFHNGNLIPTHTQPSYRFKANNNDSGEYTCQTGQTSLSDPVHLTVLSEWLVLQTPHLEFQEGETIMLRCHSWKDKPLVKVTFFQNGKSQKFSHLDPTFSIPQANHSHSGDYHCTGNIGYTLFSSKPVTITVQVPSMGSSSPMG

T2: FcγRIIb (human, UniProt P31994 43-217)
T2 construct: extracellular domain; also called 2b; FcgRIIb
T2 sequence (looked up): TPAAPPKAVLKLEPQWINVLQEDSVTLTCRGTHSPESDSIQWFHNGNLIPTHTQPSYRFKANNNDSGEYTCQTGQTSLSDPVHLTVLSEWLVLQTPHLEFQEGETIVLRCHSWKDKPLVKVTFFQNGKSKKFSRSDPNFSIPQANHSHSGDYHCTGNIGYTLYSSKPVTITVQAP


Columns and labels:
FcγRIIa H [1] = target: T1, FcγRIIa H; assay: ratio of He/Con_2aH to He/Con_2b (FcγRIIb); SPR
FcγRIIb = target: T2, FcγRIIb; assay: SPR (Biacore), captured antibody, FcγR as analyte; GpH7-A5/GpH7-B3/GpL16-k0 = 100
Procedure: (§1) The heterodimerized antibodies He Abs in which one of the H chains was introduced with an alteration were assayed for their binding activities to each activating FcγR and inhibitory FcγR according to the method described in Example 4. […] The activating FcγRs in FIGS. 26, 27, 28, and 29 are FcγRIa, FcγRIIa (R), FcγRIIa (H), and FcγRIIIa, respectively.
(§2) Analysis of interaction between objective antibody and the FcγR was carried out using Biacore T100 (GE Healthcare). HBS-EP+ (GE Healthcare) was used as the running buffer, and the measurement temperature was set to 25° C. Chips produced by immobilizing the antigen peptide by the amine coupling method to a Series S Sencor Chip CM5 (GE Healthcare), or alternatively, chips produced by allowing preliminarily biotinylated antigen peptides to interact with and immobilize onto a Series S Sensor Chip SA (certified) (GE Healthcare) were used. Antibodies of interest were captured onto an antigen peptide-immobilized chip, and allowed to interact to each FcγR diluted with running buffer. To regenerate and repeatedly use the chip, the antibodies captured on the chip were washed off by reacting 10 mM glycine-HCl, pH 1.5.

FcγRIIa H [2] = target: T1, FcγRIIa H; assay: as above
Procedure: as §1, §2

Row | Binder | He_2aH/2b (IIaH/IIb ratio) (FcγRIIa H [1]) | He/Con_2b (relative binding) (FcγRIIb) | He/Con_2aH (relative binding) (FcγRIIa H [2])
1 | GpH7-A5/GpH7-B3 variant D270_13S/GpL16-k0 (antibody, human IgG1, kappa, Heterodimerized anti-glypican-3 IgG1 (He Ab); mutation in the B3 H chain only; also called He Ab) heavy 1: not shown heavy 2: not shown light: DIVMTQSPLSLPVTPGEPASISCQASESLVHSNRNTYLHWYLQKPGQSPQLLIYKVSNRFSGVPDRFSGSGSGTDFTLKISRVEAEDVGVYYCSQNTHVPPTFGQGTKVEIERTVAAPSVFIFPPSDEQLKSGTASVVCLLNNFYPREAKVQWKVDNALQSGNSQESVTEQDSKDSTYSLSSTLTLSKADYEKHKVYACEVTHQGLSSPVTKSFNRGEC | 1.61 | 44.2% | 71.2%
2 | GpH7-A5/GpH7-B3 variant E269_08L/GpL16-k0 (antibody, human IgG1, kappa, Heterodimerized anti-glypican-3 IgG1 (He Ab); mutation in the B3 H chain only; also called He Ab) heavy 1: not shown heavy 2: not shown light: DIVMTQSPLSLPVTPGEPASISCQASESLVHSNRNTYLHWYLQKPGQSPQLLIYKVSNRFSGVPDRFSGSGSGTDFTLKISRVEAEDVGVYYCSQNTHVPPTFGQGTKVEIERTVAAPSVFIFPPSDEQLKSGTASVVCLLNNFYPREAKVQWKVDNALQSGNSQESVTEQDSKDSTYSLSSTLTLSKADYEKHKVYACEVTHQGLSSPVTKSFNRGEC | 1.57 | 42.9% | 67.4%
3 | GpH7-A5/GpH7-B3 variant D270_20W/GpL16-k0 (antibody, human IgG1, kappa, Heterodimerized anti-glypican-3 IgG1 (He Ab); mutation in the B3 H chain only; also called He Ab) heavy 1: not shown heavy 2: not shown light: DIVMTQSPLSLPVTPGEPASISCQASESLVHSNRNTYLHWYLQKPGQSPQLLIYKVSNRFSGVPDRFSGSGSGTDFTLKISRVEAEDVGVYYCSQNTHVPPTFGQGTKVEIERTVAAPSVFIFPPSDEQLKSGTASVVCLLNNFYPREAKVQWKVDNALQSGNSQESVTEQDSKDSTYSLSSTLTLSKADYEKHKVYACEVTHQGLSSPVTKSFNRGEC | 1.74 | 34.7% | 60.2%
4 | GpH7-A5/GpH7-B3 variant D270_18N/GpL16-k0 (antibody, human IgG1, kappa, Heterodimerized anti-glypican-3 IgG1 (He Ab); mutation in the B3 H chain only; also called He Ab) heavy 1: not shown heavy 2: not shown light: DIVMTQSPLSLPVTPGEPASISCQASESLVHSNRNTYLHWYLQKPGQSPQLLIYKVSNRFSGVPDRFSGSGSGTDFTLKISRVEAEDVGVYYCSQNTHVPPTFGQGTKVEIERTVAAPSVFIFPPSDEQLKSGTASVVCLLNNFYPREAKVQWKVDNALQSGNSQESVTEQDSKDSTYSLSSTLTLSKADYEKHKVYACEVTHQGLSSPVTKSFNRGEC | 1.55 | 40.3% | 62.5%
5 | GpH7-A5/GpH7-B3 variant E269_04F/GpL16-k0 (antibody, human IgG1, kappa, Heterodimerized anti-glypican-3 IgG1 (He Ab); mutation in the B3 H chain only; also called He Ab) heavy 1: not shown heavy 2: not shown light: DIVMTQSPLSLPVTPGEPASISCQASESLVHSNRNTYLHWYLQKPGQSPQLLIYKVSNRFSGVPDRFSGSGSGTDFTLKISRVEAEDVGVYYCSQNTHVPPTFGQGTKVEIERTVAAPSVFIFPPSDEQLKSGTASVVCLLNNFYPREAKVQWKVDNALQSGNSQESVTEQDSKDSTYSLSSTLTLSKADYEKHKVYACEVTHQGLSSPVTKSFNRGEC | 1.52 | 45% | 68.5%
6 | GpH7-A5/GpH7-B3 variant D270_14T/GpL16-k0 (antibody, human IgG1, kappa, Heterodimerized anti-glypican-3 IgG1 (He Ab); mutation in the B3 H chain only; also called He Ab) heavy 1: not shown heavy 2: not shown light: DIVMTQSPLSLPVTPGEPASISCQASESLVHSNRNTYLHWYLQKPGQSPQLLIYKVSNRFSGVPDRFSGSGSGTDFTLKISRVEAEDVGVYYCSQNTHVPPTFGQGTKVEIERTVAAPSVFIFPPSDEQLKSGTASVVCLLNNFYPREAKVQWKVDNALQSGNSQESVTEQDSKDSTYSLSSTLTLSKADYEKHKVYACEVTHQGLSSPVTKSFNRGEC | 1.3 | 57.8% | 75.3%
7 | GpH7-A5/GpH7-B3 variant E269_07I/GpL16-k0 (antibody, human IgG1, kappa, Heterodimerized anti-glypican-3 IgG1 (He Ab); mutation in the B3 H chain only; also called He Ab) heavy 1: not shown heavy 2: not shown light: DIVMTQSPLSLPVTPGEPASISCQASESLVHSNRNTYLHWYLQKPGQSPQLLIYKVSNRFSGVPDRFSGSGSGTDFTLKISRVEAEDVGVYYCSQNTHVPPTFGQGTKVEIERTVAAPSVFIFPPSDEQLKSGTASVVCLLNNFYPREAKVQWKVDNALQSGNSQESVTEQDSKDSTYSLSSTLTLSKADYEKHKVYACEVTHQGLSSPVTKSFNRGEC | 1.52 | 43.9% | 66.6%
8 | GpH7-A5/GpH7-B3 variant D270_16H/GpL16-k0 (antibody, human IgG1, kappa, Heterodimerized anti-glypican-3 IgG1 (He Ab); mutation in the B3 H chain only; also called He Ab) heavy 1: not shown heavy 2: not shown light: DIVMTQSPLSLPVTPGEPASISCQASESLVHSNRNTYLHWYLQKPGQSPQLLIYKVSNRFSGVPDRFSGSGSGTDFTLKISRVEAEDVGVYYCSQNTHVPPTFGQGTKVEIERTVAAPSVFIFPPSDEQLKSGTASVVCLLNNFYPREAKVQWKVDNALQSGNSQESVTEQDSKDSTYSLSSTLTLSKADYEKHKVYACEVTHQGLSSPVTKSFNRGEC | 1.51 | 47.2% | 71.5%
9 | GpH7-A5/GpH7-B3 variant E269_06M/GpL16-k0 (antibody, human IgG1, kappa, Heterodimerized anti-glypican-3 IgG1 (He Ab); mutation in the B3 H chain only; also called He Ab) heavy 1: not shown heavy 2: not shown light: DIVMTQSPLSLPVTPGEPASISCQASESLVHSNRNTYLHWYLQKPGQSPQLLIYKVSNRFSGVPDRFSGSGSGTDFTLKISRVEAEDVGVYYCSQNTHVPPTFGQGTKVEIERTVAAPSVFIFPPSDEQLKSGTASVVCLLNNFYPREAKVQWKVDNALQSGNSQESVTEQDSKDSTYSLSSTLTLSKADYEKHKVYACEVTHQGLSSPVTKSFNRGEC | 1.58 | 46.7% | 73.6%
10 | GpH7-A5/GpH7-B3 variant D270_19Q/GpL16-k0 (antibody, human IgG1, kappa, Heterodimerized anti-glypican-3 IgG1 (He Ab); mutation in the B3 H chain only; also called He Ab) heavy 1: not shown heavy 2: not shown light: DIVMTQSPLSLPVTPGEPASISCQASESLVHSNRNTYLHWYLQKPGQSPQLLIYKVSNRFSGVPDRFSGSGSGTDFTLKISRVEAEDVGVYYCSQNTHVPPTFGQGTKVEIERTVAAPSVFIFPPSDEQLKSGTASVVCLLNNFYPREAKVQWKVDNALQSGNSQESVTEQDSKDSTYSLSSTLTLSKADYEKHKVYACEVTHQGLSSPVTKSFNRGEC | 1.77 | 48% | 85%
11 | GpH7-A5/GpH7-B3 variant E269_12R/GpL16-k0 (antibody, human IgG1, kappa, Heterodimerized anti-glypican-3 IgG1 (He Ab); mutation in the B3 H chain only; also called He Ab) heavy 1: not shown heavy 2: not shown light: DIVMTQSPLSLPVTPGEPASISCQASESLVHSNRNTYLHWYLQKPGQSPQLLIYKVSNRFSGVPDRFSGSGSGTDFTLKISRVEAEDVGVYYCSQNTHVPPTFGQGTKVEIERTVAAPSVFIFPPSDEQLKSGTASVVCLLNNFYPREAKVQWKVDNALQSGNSQESVTEQDSKDSTYSLSSTLTLSKADYEKHKVYACEVTHQGLSSPVTKSFNRGEC | 1.86 | 25.2% | 46.8%
12 | GpH7-A5/GpH7-B3 variant E269_02A/GpL16-k0 (antibody, human IgG1, kappa, Heterodimerized anti-glypican-3 IgG1 (He Ab); mutation in the B3 H chain only; also called He Ab) heavy 1: not shown heavy 2: not shown light: DIVMTQSPLSLPVTPGEPASISCQASESLVHSNRNTYLHWYLQKPGQSPQLLIYKVSNRFSGVPDRFSGSGSGTDFTLKISRVEAEDVGVYYCSQNTHVPPTFGQGTKVEIERTVAAPSVFIFPPSDEQLKSGTASVVCLLNNFYPREAKVQWKVDNALQSGNSQESVTEQDSKDSTYSLSSTLTLSKADYEKHKVYACEVTHQGLSSPVTKSFNRGEC | 1.56 | 49.9% | 77.8%
13 | GpH7-A5/GpH7-B3 variant E269_03V/GpL16-k0 (antibody, human IgG1, kappa, Heterodimerized anti-glypican-3 IgG1 (He Ab); mutation in the B3 H chain only; also called He Ab) heavy 1: not shown heavy 2: not shown light: DIVMTQSPLSLPVTPGEPASISCQASESLVHSNRNTYLHWYLQKPGQSPQLLIYKVSNRFSGVPDRFSGSGSGTDFTLKISRVEAEDVGVYYCSQNTHVPPTFGQGTKVEIERTVAAPSVFIFPPSDEQLKSGTASVVCLLNNFYPREAKVQWKVDNALQSGNSQESVTEQDSKDSTYSLSSTLTLSKADYEKHKVYACEVTHQGLSSPVTKSFNRGEC | 1.49 | 45.1% | 67.5%
14 | GpH7-A5/GpH7-B3 variant E269_11K/GpL16-k0 (antibody, human IgG1, kappa, Heterodimerized anti-glypican-3 IgG1 (He Ab); mutation in the B3 H chain only; also called He Ab) heavy 1: not shown heavy 2: not shown light: DIVMTQSPLSLPVTPGEPASISCQASESLVHSNRNTYLHWYLQKPGQSPQLLIYKVSNRFSGVPDRFSGSGSGTDFTLKISRVEAEDVGVYYCSQNTHVPPTFGQGTKVEIERTVAAPSVFIFPPSDEQLKSGTASVVCLLNNFYPREAKVQWKVDNALQSGNSQESVTEQDSKDSTYSLSSTLTLSKADYEKHKVYACEVTHQGLSSPVTKSFNRGEC | 2.87 | 17.8% | 51.1%
15 | GpH7-A5/GpH7-B3 variant D270_15Y/GpL16-k0 (antibody, human IgG1, kappa, Heterodimerized anti-glypican-3 IgG1 (He Ab); mutation in the B3 H chain only; also called He Ab) heavy 1: not shown heavy 2: not shown light: DIVMTQSPLSLPVTPGEPASISCQASESLVHSNRNTYLHWYLQKPGQSPQLLIYKVSNRFSGVPDRFSGSGSGTDFTLKISRVEAEDVGVYYCSQNTHVPPTFGQGTKVEIERTVAAPSVFIFPPSDEQLKSGTASVVCLLNNFYPREAKVQWKVDNALQSGNSQESVTEQDSKDSTYSLSSTLTLSKADYEKHKVYACEVTHQGLSSPVTKSFNRGEC | 1.6 | 44.9% | 71.9%
